Experimental data published in paper PMC7701066.

Legend:
[1] = target: FLAG-tagged wild-type central Reelin fragment (Reelin repeats 3–6), Fc removed (UniProt Q60841); experiment: SEC; Superose 6 Increase 10/300 GL, A280 traces of heterodimer, FLAG-WT homodimer and His6-K2467A homodimer
[2] = target: His6-tagged K2467A mutant central Reelin fragment (Reelin repeats 3–6), Fc removed (UniProt Q60841); experiment: as above
[3] = target: Fc-fused Reelin heterodimer (FLAG-WT / His6-K2467A central fragment, Fc retained) (UniProt Q60841); experiment: BLI; BLItz; Fc-fused heterodimer on a Protein A biosensor; dilution series (11 concentrations) of ecto-VLDLR; 20 mM Hepes pH 7.4, 150 mM NaCl, 1 mM CaCl2, 0.2% Tween20, 0.1% BSA; association 45 s, dissociation 60 s without CaCl2 and with 1 mM EDTA; maximum responses fitted to one site specific binding; triplicate

Substance: FLAG-tagged wild-type central Reelin fragment (Reelin repeats 3–6), Fc removed (from UniProt Q60841 27-3461) (domain or fragment)
- stoichiometry N [1]: 2

Substance: His6-tagged K2467A mutant central Reelin fragment (Reelin repeats 3–6), Fc removed (from UniProt Q60841 27-3461) (domain or fragment)
- stoichiometry N [2]: 2

Substance: purified extracellular domain of VLDLR (very-low density lipoprotein receptor) (from UniProt P98155 28-797)
- Kd [3]: 0.129 µM
